# In publication PMC3663191 (mBio, 2013):
# Residue numbers refer to the chain shown, from its start. Names may count otherwise. “And” between values parts separate entries of the source, which are not always exact repeats. Equal values may be shown once.
# B1: WspR^wt (His-tagged WspR, purified) (enzyme, Pseudomonas aeruginosa)
# chain: MHNPHESKTDLGAPLDGAVMVLLVDDQAMIGEAVRRSLASEAGIDFHFCSDPQQAVAVANQIKPTVILQDLVMPGVDGLTLLAAYRGNPATRDIPIIVLSTKEEPTVKSAAFAAGANDYLVKLPDAIELVARIRYHSRSYIALQQRDEAYRALRESQQQLLETNLVLQRLMNSDGLTGLSNRRHFDEYLEMEWRRSLREQSQLSLLMIDVDYFKSYNDTFGHVAGDEALRQVAGAIREGCSRSSDLAARYGGEEFAMVLPGTSPGGARLLAEKVRRTVESLQISHDQPRPGSHLTVSIGVSTLVPGGGGQTFRVLIEMADQALYQAKNNGRNQVGLMEQPVPPAPAG
# B2: WspR^V72D (His-tagged WspR V72D variant, purified) (enzyme, Pseudomonas aeruginosa)
# chain: B1 chain with V72D
# Target: the molecule itself
# Assay: SEC
protein,measurement,value
B1,stoichiometry N,4 and 2
B2,stoichiometry N,4 and 2
